From patent publication US20020127645A1

Target: dimeric mouse-human chimeric IgA1 specific for the hapten dansyl (human) (UniProt P01876)
Assay: densitometry of secreted proteins after immunoprecipitation and SDS-PAGE

Chain of UniProt P01876 (P01876 other isoform, or with tags, fused parts or gaps mutant, chain 1 of 2, other chains not shown): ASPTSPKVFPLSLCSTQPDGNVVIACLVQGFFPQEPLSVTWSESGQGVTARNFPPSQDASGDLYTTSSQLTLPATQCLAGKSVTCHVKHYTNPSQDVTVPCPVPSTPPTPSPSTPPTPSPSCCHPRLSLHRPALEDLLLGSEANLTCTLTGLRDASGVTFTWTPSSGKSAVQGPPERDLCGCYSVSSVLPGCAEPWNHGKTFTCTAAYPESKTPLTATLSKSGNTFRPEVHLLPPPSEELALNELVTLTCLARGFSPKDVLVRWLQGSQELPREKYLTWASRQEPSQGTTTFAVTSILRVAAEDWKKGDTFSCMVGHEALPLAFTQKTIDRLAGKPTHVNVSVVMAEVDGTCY

“human secretory component (SC), ectoplasmic domain of the human polymeric Ig receptor (pIgR) ending at Glu589 (from UniProt P01833 19-607)” gave a α chains per molecule of SC (stoichiometry) (α chains per SC) of 4.
